Source: patent US20260217793A1 (Chugai, published 2026)

How the values were obtained:
[1] = molecular target: T1, human FcγRIIb (human, UniProt P31994 43-217); assay: SPR, amount bound per captured antibody
T1 sequence (looked up): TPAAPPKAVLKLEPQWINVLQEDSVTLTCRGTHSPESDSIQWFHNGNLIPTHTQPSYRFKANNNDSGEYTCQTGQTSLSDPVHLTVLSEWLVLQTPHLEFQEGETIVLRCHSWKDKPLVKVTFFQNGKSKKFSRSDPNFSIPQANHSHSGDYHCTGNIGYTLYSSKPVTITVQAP

[2] = molecular target: T2, human FcγRIIa type R (human, UniProt P12318 34-217); assay: SPR, amount bound per captured antibody
T2 sequence (looked up): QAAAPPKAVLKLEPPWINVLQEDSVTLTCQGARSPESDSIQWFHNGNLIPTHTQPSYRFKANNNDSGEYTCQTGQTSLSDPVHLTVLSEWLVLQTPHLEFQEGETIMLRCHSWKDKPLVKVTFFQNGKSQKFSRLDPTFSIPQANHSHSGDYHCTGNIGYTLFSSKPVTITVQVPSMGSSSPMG

[3] = molecular target: human IgA (recombinant, variable region from an anti-human IL6R antibody) (human); assay: SPR
[4] = molecular target: human IgA (hIgA); assay: SPR, comparison of calcium conditions
[5] = molecular target: T1, human FcγRIIb; assay: ratio of SPR KD values
[6] = molecular target: T2, human FcγRIIa type R; assay: ratio of SPR KD values

B1: IL6R-F652/IL6R-L (antibody, human IgG1, kappa)
heavy: QVQLQESGPGLVKPSETLSLTCAVSGHSISHDHAWSWVRQPPGEGLEWIGFISYSGITNYNPSLQGRVTISRDNSKNTLYLQMNSLRAEDTAVYYCARSLARTTAMDYWGEGTLVTVSSASTKGPSVFPLAPSSKSTSGGTAALGCLVKDYFPEPVTVSWNSGALTSGVHTFPAVLQSSGLYSLSSVVTVPSSSLGTQTYICNVNHKPSNTKVDKKVEPKSCDKTHTCPPCPAPELLGGDSVFLFPPKPKDTLYISRTPEVTCVVVDVSHEDPEVKFNWYVDGVEVHNAKTKPREEQYNSTYRVVSVLTVLHQDWLNGKEYKCKVSNKALPAPIEKTISKAKGQPREPQVYTLPPSRDELTKNQVSLTCLVKGFYPSDIAVEWESNGQPENNYKTTPPVLDSDGSFFLYSKLTVDKSRWQQGNVFSCSVMHEALHYHYTQKSLSLSP
light: not shown
relative binding activity (IL6R-F652/IL6R-L = 100) [1]: 100 | relative binding activity (IL6R-F652/IL6R-L = 100) [2]: 100

B2: GA2-IgG1 (antibody, V domains shown)
VH: QVQLVQSGAEVKKPGSSVKVSCKASGGTFSSYAISWVRQAPGQGLEWMGGIIPIFGTANYAQKFQGRVTITADESTSTAYMELSSLRSEDTAVYYCARPRWETAISSDAFDIWGQGTMVTVSS
VL: DIQMTQSPSSLSASVGDRVTITCRASQSISDDLNWYQQKPGKAPKLLIYEASNLQSGVPSRFSGSGSGTDFTLTISSLQPEDFATYYCQQHSSSPLTFGQGTKVEIKR
kon [3]: 400000 M⁻¹ s⁻¹

B3: GA2-IgG1 (antibody, V domains shown)
VH: QVQLVQSGAEVKKPGSSVKVSCKASGGTFSSYAISWVRQAPGQGLEWMGGIIPIFGTANYAQKFQGRVTITADESTSTAYMELSSLRSEDTAVYYCARPRWETAISSDAFDIWGQGTMVTVSS
VL: DIQMTQSPSSLSASVGDRVTITCRASQSISDDLNWYQQKPGKAPKLLIYEASNLQSGVPSRFSGSGSGTDFTLTISSLQPEDFATYYCQQHSSSPLTFGQGTKVEIKR
Ca-dependent hIgA-binding activity (fold) [4]: ≥ 100 fold

B4: IL6R-BP478/IL6R-L (antibody)
heavy: QVQLQESGPGLVKPSETLSLTCAVSGHSISHDHAWSWVRQPPGEGLEWIGFISYSGITNYNPSLQGRVTISRDNSKNTLYLQMNSLRAEDTAVYYCARSLARTTAMDYWGEGTLVTVSSASTKGPSVFPLAPCSRSTSESTAALGCLVKDYFPEPVTVSWNSGALTSGVHTFPAVLQSSGLYSLSSVVTVPSSSLGTKTYTCNVDHKPSNTKVDKRVESKYGPPCPPCPAPDLLGDDSVFLFPPKPKDTLMISRTPEVTCVVVDVSDEDGEVKFNWYVDGVEVHNAKTKPREEQDNSTYRVVSVLTVLHQDWLNGKEYKCKVSNKALPRPIEKTISKAKGQPREPQVYTLPPSRDELTKNQVSLTCLVKGFYPSDIAVEWESNGQPENNYKTTPPVLDSDGSFFLYSKLTVDKSRWQQGNVFSCSVMHEALHNHYTQESLSLSP
light: not shown
binding relative to IL6R-BP230/IL6R-L [5]: 1.1 fold | binding relative to IL6R-BP230/IL6R-L [6]: 0.9 fold
